Among the data in publication PMC10791855 are stoichiometry N values, retold here.

Holding throughout (test): SEC; gel filtration on HiPrep 16/60 Sephacryl S-200 HR in 20 mM Tris-HCl, 1.5 M NaCl, 50 mM imidazole, pH 7.4; molecular mass estimated against standard proteins
Experiment [1] addresses Universal stress protein USP5 from Haloferax mediterranei (Haloferax mediterranei).
Experiment [2] has as its target Universal stress protein USP21 from Haloferax mediterranei (Haloferax mediterranei).
In experiment [3] the target is Universal stress protein USP28 from Haloferax mediterranei (Haloferax mediterranei).

As usually defined, the stoichiometry N is the number of molecules, sites or subunits per partner or assembly. For “Universal stress protein USP5 from Haloferax mediterranei (natural protein)”, the stoichiometry N in experiment [1] was 2. Take “Universal stress protein USP21 from Haloferax mediterranei (natural protein)”: in experiment [2], the stoichiometry N was 2. In the case of “Universal stress protein USP28 from Haloferax mediterranei (natural protein)”, in experiment [3], the stoichiometry N was 2.
